Laboratory results from patent US20090118127A1 (Janssen / Centocor, published 2009).

Tests used:
[1] = biological target: T1, human tumor necrosis factor alpha (TNFα) (human, UniProt P01375 77-233); test: Biacore (SPR), calculated KD
T1 construct: also called human TNFα

[2] = biological target: T1, human tumor necrosis factor alpha (TNFα); test: Biacore (SPR), 3 pairs of experiments
[3] = biological target: T1, human tumor necrosis factor alpha (TNFα); test: ELISA, human TNFα coated on the plate, bound antibody detected with HRP anti-human kappa
Method: Antibodies were assessed for binding to human TNFα using an ELISA format. Briefly, human TNFα was coated into the wells of a 96 well plate and candidate mAbs were incubated at various concentrations (20 to 0.2 ng/ml) and bound antibody was detected with HRP-labeled anti-human kappa light chain IgG (Jackson, ImmunoResearch, West Grove, Pa.).

T1 sequence (P01375 77-233 limits assumed): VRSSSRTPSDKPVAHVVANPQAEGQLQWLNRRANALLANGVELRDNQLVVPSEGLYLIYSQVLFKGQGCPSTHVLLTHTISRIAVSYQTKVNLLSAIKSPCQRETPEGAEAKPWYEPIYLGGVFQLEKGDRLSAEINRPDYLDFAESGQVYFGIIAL

B1: Structure Based Human Adapted C7 (antibody, V domains shown)
VH: EVQLVESGGGLVQPGGSLRLSCAASGFIFSNHWMNWVRQAPGKGLEWIGEIRSKSINSATHYAESVKGRFIISRDDNKNSLYLEMNSLKTEDTAEYYCARNYYGSTYDYWGQGTLVTVS
VL: EIVLTQSPDFQSVTPKEKVTITCRASQFVGSSIHWYQQKPDQSPKLLIKYASESMSGVPSRFSGSGSGTDFTFTISSLEAEDAATYYCQQSHSWPFTFGPGTKVDIK
B1 gave a Kd [1] of 0.07 nM, a koff [2] of 5.63e-05 s⁻¹ and a kon [2] of 803000 M⁻¹ s⁻¹. For the same binder, the “EC50 (read off the curve)” value [3] was about 2 ng/mL.
